Measured values from patent publication US10428140B2, “Anti-EphA4 antibody” (EISAI R&D MANAGEMENT CO., LTD., priority 2015, dated 2019).

How the values were obtained:
Assay in all cases: Selectivity ELISA of humanized antibodies for human Eph receptor
Format in all cases: binding
Details in all cases: coated protein 1 nM
human EphB2 = molecular target: T1, human EphB2 (Homo sapiens, UniProt P29323)
T1 construct: a protein of the extracellular region of each human Eph receptor fused with the SEAP protein and the His tag; made in house; host or cells: Expi293F cells
T1 sequence (P29323 19-543 limits assumed): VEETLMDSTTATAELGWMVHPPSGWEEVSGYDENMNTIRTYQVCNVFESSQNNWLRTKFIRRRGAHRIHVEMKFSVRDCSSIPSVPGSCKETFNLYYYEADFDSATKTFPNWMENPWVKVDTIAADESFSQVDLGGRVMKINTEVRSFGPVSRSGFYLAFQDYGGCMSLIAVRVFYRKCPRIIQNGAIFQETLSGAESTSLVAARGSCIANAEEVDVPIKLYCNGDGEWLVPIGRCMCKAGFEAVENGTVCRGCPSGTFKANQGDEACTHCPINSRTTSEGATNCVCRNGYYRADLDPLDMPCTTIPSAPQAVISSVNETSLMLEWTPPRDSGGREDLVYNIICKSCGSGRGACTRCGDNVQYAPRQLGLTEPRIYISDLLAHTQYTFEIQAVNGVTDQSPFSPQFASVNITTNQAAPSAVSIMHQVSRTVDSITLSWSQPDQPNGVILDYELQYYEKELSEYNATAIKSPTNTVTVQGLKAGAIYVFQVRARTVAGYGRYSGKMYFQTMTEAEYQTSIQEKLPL
Text: (§1) According to the method described in Example 7, a DNA sequence encoding the signal sequence and the extracellular region of each human Eph receptor (EphA1, EphA2, EphA3, EphA4, EphA5, EphA6, EphA7, EphA8, EphA10, EphB1, EphB2, EphB3, EphB4, and EphB6) was amplified by RT-PCR using tissue-derived total RNA and cloned into a pENTR1A vector (Invitrogen/Life Technologies) having a DNA sequence encoding SEAP protein and histidine tag. Next, the DNA sequence encoding the signal sequence and the extracellular region of each human Eph receptor, SEAP protein, and histidine tag was transferred to a pcDNA3.1_rfcB vector through LR reaction using Gateway System (Invitrogen/Life Technologies) to construct a vector for the expression of a protein of the extracellular region of each human Eph receptor fused with the SEAP protein and the His tag (referred to as “Eph receptor extracellular region-SEAP-His protein”) (this vector is referred to as “Eph receptor extracellular region-SEAP-His protein expression vector”).
(§2) Next, each human Eph receptor extracellular region-SEAP-His protein expression vector was transferred to Expi293F cells (Gibco/Thermo Fisher Scientific) using Expi293 expression system (Gibco/Thermo Fisher Scientific). After incubation (5% CO2, 37° C.) for 5 days, the culture supernatant was recovered and centrifuged at 1500 rpm at room temperature for 5 minutes. The centrifugation supernatant was filtered through a 0.45-μm filter (Merck Millipore).
(§3) Each anti-EphA4 monoclonal humanized antibody obtained in Example 16 was evaluated for its binding activity against each human Eph receptor according to the following steps.
(§4) Each well of a 96-well plate (Nunc) was coated with a rabbit anti-6-His antibody (Bethyl Laboratories). Each well was […] After washing with 0.05% Tween 20/PBS (Nacalai Tesque) three times, the SEAP-His protein of human EphA1, EphA2, EphA3, EphA4, EphA5, EphA6, EphA7, EphA8, EphA10, EphB1, EphB2, EphB3, EphB4, or EphB6 was added (final concentration: 1 nM) to each well and incubated at room temperature for 1 hour. After washing three times, the humanized antibody was added to each well and incubated at room temperature for 1 hour. After washing three times, a horseradish peroxidase-labeled donkey […] IgG antibody (Jackson ImmunoResearch Laboratories) was added thereto and incubated at room temperature for 1 hour. After washing three times, TMB Microwell Peroxidase Substrate System (Kirkegaard & Perry Laboratories (KPL)) was added to each well. After confirmation of moderate color development, an equal amount of a reaction stopping solution (1N H2SO4, Wako Pure Chemical Industries) was added to each well. The absorbance at 450 nm was read using a microplate reader (Thermo Fisher Scientific).

human EphB3 = molecular target: T2, human EphB3 (Homo sapiens, UniProt P54753)
T2 construct: a protein of the extracellular region of each human Eph receptor fused with the SEAP protein and the His tag; made in house; host or cells: Expi293F cells
T2 sequence (P54753 34-559 limits assumed): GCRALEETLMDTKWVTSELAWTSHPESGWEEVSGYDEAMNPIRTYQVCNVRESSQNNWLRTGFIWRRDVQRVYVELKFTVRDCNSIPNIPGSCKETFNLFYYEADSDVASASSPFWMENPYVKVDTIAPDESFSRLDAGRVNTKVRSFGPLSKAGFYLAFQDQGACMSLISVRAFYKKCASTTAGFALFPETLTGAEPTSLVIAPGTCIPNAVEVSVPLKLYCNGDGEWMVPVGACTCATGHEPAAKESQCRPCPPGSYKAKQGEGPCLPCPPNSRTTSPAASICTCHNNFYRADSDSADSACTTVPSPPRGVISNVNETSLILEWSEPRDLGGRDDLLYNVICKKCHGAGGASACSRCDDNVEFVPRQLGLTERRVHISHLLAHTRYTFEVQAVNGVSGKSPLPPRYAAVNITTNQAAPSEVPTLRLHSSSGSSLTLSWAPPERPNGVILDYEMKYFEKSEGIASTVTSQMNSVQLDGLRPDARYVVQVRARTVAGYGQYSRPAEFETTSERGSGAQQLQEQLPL
Text: as §1, §2, §3, §4

human EphA10 = molecular target: T3, human EphA10 (Homo sapiens, UniProt Q5JZY3)
T3 construct: a protein of the extracellular region of each human Eph receptor fused with the SEAP protein and the His tag; made in house; host or cells: Expi293F cells (culture supernatant)
T3 sequence (Q5JZY3 34-565 limits assumed): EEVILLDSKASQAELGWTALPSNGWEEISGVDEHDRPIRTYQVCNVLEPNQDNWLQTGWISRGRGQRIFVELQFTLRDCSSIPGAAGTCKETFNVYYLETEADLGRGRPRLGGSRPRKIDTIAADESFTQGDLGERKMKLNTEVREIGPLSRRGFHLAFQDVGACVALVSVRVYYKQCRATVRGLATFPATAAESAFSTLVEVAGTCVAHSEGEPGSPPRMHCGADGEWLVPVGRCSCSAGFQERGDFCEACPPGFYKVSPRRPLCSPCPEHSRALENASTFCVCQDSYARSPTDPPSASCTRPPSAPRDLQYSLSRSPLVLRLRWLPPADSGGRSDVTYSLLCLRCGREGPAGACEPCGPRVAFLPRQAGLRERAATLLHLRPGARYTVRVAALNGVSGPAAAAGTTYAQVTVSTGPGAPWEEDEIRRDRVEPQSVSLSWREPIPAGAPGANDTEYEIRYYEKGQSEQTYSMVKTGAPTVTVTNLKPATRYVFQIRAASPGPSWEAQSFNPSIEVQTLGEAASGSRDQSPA
Text: as §1, §2, §3, §4

Molecule	hEphB2-SEAP-: absorbance at 450 nm, percentage with respect to hEphA4-SEAP-His as 100% (human EphB2)	hEphB3-SEAP-: absorbance at 450 nm, percentage with respect to hEphA4-SEAP-His as 100% (human EphB3)	hEphA10-SEAP-: absorbance at 450 nm, percentage with respect to hEphA4-SEAP-His as 100% (human EphA10)
86 (antibody, V domains shown, constant regions without entry; synthetic humanized antibody light chain variable region sequence; synthetic humanized antibody heavy chain variable region sequence) VL: DIQMTQSPSSLSASVGDRVTITCRASENIYRNLAWYQQKPGKAPKLLLYAATNLADGVPSRFSGSGSGTDYTLTISSLQSEDFATYYCQHFWGTPWTFGQGTKVEIK VH: QIQLVQSGSELKKPGASVKVSCKASGYTFTDYSMHWVRQAPGQGLKWMGWINTETGEPTYADDFKGRFVFSLDTSVSTAYLQISSLKAEDTAVYYCARIPLYYYGSRYWYFDVWGQGTTVTVSS	5.7%	5.9%	5.6%
88 (antibody, V domains shown, constant regions without entry; synthetic humanized antibody light chain variable region sequence; synthetic humanized antibody heavy chain variable region sequence) VL: DIQMTQSPSSLSASVGDRVTITCRASENIYRNLAWYQQKPGKAPQLLLYAATNLADGVPSRFSGSGSGTDYTLTISSLQPEDFATYYCQHFWGTPWTFGQGTKVEIK VH: QVQLVQSGSELKKPGASVKVSCKASGYTFTDYSMHWVRQAPGQGLKWMGWINTETGEPTYAQGFTGRFVFSLDTSVSTAYLQISSLKAEDTAVYYCARIPLYYYGSRYWYFDVWGQGTTVTVSS	6.0%	6.3%	5.8%
87 (antibody, V domains shown, constant regions without entry; synthetic humanized antibody light chain variable region sequence; synthetic humanized antibody heavy chain variable region sequence) VL: DIQMTQSPSSLSASVGDRVTITCRASENIYRNLAWYQQKPGKAPQLLLYAATNLADGVPSRFSGSGSGTDYTLTISSLQPEDFATYYCQHFWGTPWTFGQGTKVEIK VH: QVQLVQSGSELKKPGASVKVSCKASGYTFTDYSMHWVRQAPGQGLEWMGWINTETGEPTYAQGFTGRFVFSLDTSVSTAYLQISSLKAEDTAVYYCARIPLYYYGSRYWYFDVWGQGTTVTVSS	5.4%	5.5%	5.2%
89 (antibody, V domains shown, constant regions without entry; synthetic humanized antibody light chain variable region sequence; synthetic humanized antibody heavy chain variable region sequence) VL: DIQMTQSPSSLSASVGDRVTITCRASENIYRNLAWYQQKPGKAPQLLLYAATNLADGVPSRFSGSGSGTDYTLTISSLQPEDFATYYCQHFWGTPWTFGQGTKVEIK VH: QIQLVQSGSELKKPGASVKVSCKASGYTFTDYSMHWVRQAPGQGLKWMGWINTETGEPTYAQGFTGRFVFSLDTSVSTAYLQISSLKAEDTAVYYCARIPLYYYGSRYWYFDVWGQGTTVTVSS	5.7%	5.7%	5.7%
90 (antibody, V domains shown, constant regions without entry; synthetic humanized antibody light chain variable region sequence; synthetic humanized antibody heavy chain variable region sequence) VL: DIQMTQSPSSLSASVGDRVTITCRASENIYRNLAWYQQKPGKAPQLLLYAATNLADGVPSRFSGSGSGTDYTLTISSLQPEDFATYYCQHFWGTPWTFGQGTKVEIK VH: QVQLVQSGSELKKPGASVKVSCKASGYTFTDYSMHWVRQAPGQGLEWMGWINTETGEPTYADDFKGRFVFSLDTSVSTAYLQISSLKAEDTAVYYCARIPLYYYGSRYWYFDVWGQGTTVTVSS	5.9%	5.1%	5.1%
91 (antibody, V domains shown, constant regions without entry; synthetic humanized antibody light chain variable region sequence; synthetic humanized antibody heavy chain variable region sequence) VL: DIQMTQSPSSLSASVGDRVTITCRASENIYRNLAWYQQKPGKAPQLLLYAATNLADGVPSRFSGSGSGTDYTLTISSLQPEDFATYYCQHFWGTPWTFGQGTKVEIK VH: QVQLVQSGSELKKPGASVKVSCKASGYTFTDYSMHWVRQAPGQGLKWMGWINTETGEPTYADDFKGRFVFSLDTSVSTAYLQISSLKAEDTAVYYCARIPLYYYGSRYWYFDVWGQGTTVTVSS	7.0%	7.0%	8.5%
